Square brackets hold non-standard residues; d marks the D form. Ends that are not written are not given here. dAgb = N=C(N)NCC[C@@H](N)C(=O)O; dNle = CCCC[C@@H](N)C(=O)O

Assay [1] deals with mouse kappa opioid receptor (mouse) (UniProt P33534). The assay is described as follows: cell-based or functional assay.
Assay [2] addresses mouse kappa opioid receptor (mouse, UniProt P33534 1-380). The assay is described as follows: cell-based or functional assay.

Sequence of mouse kappa opioid receptor (mouse) (P33534 whole entry): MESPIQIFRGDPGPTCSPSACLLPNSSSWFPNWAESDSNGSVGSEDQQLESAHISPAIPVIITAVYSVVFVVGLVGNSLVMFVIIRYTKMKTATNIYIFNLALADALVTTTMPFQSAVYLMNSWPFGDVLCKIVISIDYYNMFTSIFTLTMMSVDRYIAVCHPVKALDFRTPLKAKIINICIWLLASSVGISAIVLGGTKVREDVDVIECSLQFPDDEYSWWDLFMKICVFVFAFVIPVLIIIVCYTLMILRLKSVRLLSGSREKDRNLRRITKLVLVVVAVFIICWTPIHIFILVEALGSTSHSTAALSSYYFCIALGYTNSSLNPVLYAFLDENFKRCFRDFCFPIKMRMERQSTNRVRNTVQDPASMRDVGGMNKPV
Sequence of mouse kappa opioid receptor (P33534 whole entry): as above

In assay [1], “Compound (39): D-Phe-D-Phe-D-Leu-D-Orn-[eLys(D-Orn-D-Leu-H)]-OH (peptide)” displayed an EC50 (nM), cAMP inhibition in R1.G1 cells of 67.3 nM and an Efficacy(%), cAMP inhibition in R1.G1 cells of 35%.

B1: Compound (52): D-Phe-D-Phe-D-Leu-(D-Lys-GlyLactam)2-D-Leu-D-Phe-D-Phe (peptide)
peptide: [dF][dF][dL][dK]G
modifications: not fully specified (bridges); printed as D-Phe-D-Phe-D-Leu-(D-Lys-GlyLactam)2-D-Leu-D-Phe-D-Phe; also: two chains joined through (D-Lys-Gly lactam)2 linker
In assay [1], B1 returned an EC50 (nM), cAMP inhibition in R1.G1 cells of 13.8 nM and an Efficacy(%), cAMP inhibition in R1.G1 cells of 76%.

B2: Compound (3): D-Phe-D-Phe-D-Nle-D-Arg-D-Pro-OH (peptide)
peptide: [dF][dF][dNle][dR][dP]-OH
modifications: N-terminus assumed
SMILES: CCCC[C@@H](NC(=O)[C@@H](Cc1ccccc1)NC(=O)[C@H](N)Cc1ccccc1)C(=O)N[C@H](CCCNC(=N)N)C(=O)N1CCC[C@@H]1C(=O)O
With B2, in assay [2], the “EC50 (nM), cAMP inhibition in R1.G1 cells” value (from here on “EC50 (nM), cAMP inhibition”) came to 9.05 nM and the “Efficacy(%), cAMP inhibition in R1.G1 cells” value (“Efficacy(%), cAMP inhibition” for short) was 88%.

B3: Compound (49): 1N,4N-bis-[D-Phe-D-Phe-D-Leu-(iPr)D-Orn]-4-amino-4-carboxylic-piperidine (peptide)
peptide: [dF][dF][dL][dOrn(iPr)]-{4‑amino‑4‑carboxylic piperidine}
modifications: also: two identical chains joined through C-termini to N1 and 4-amino group of piperidine scaffold
For the molecule B3, in assay [2], the “EC50 (nM), cAMP inhibition” value amounted to 1.83 nM and the “Efficacy(%), cAMP inhibition” value is 50%.

B4: Compound (51): 1N,4N-bis-(D-Phe-D-Phe-D-Leu-D-Nar)-4-amino-4-carboxylic piperidine (peptide)
peptide: [dF][dF][dL][dAgb]-{4‑amino‑4‑carboxylic piperidine}
modifications: also: two identical chains joined through C-termini to N1 and 4-amino group of piperidine scaffold
For the molecule B4, in assay [2], the “EC50 (nM), cAMP inhibition” value turned out to be 95.8 nM and the “Efficacy(%), cAMP inhibition” value stood at 60%.

B5: Compound (50): 1N,4N-bis-[D-Phe-D-Phe-D-Leu-D-Dap(amidino)]-4-amino-4-carboxylic piperidine (peptide)
peptide: [dF][dF][dL][dDap(amidino)]-{4‑amino‑4‑carboxylic piperidine}
modifications: also: two identical chains joined through C-termini to N1 and 4-amino group of piperidine scaffold
With B5, in assay [2], the “EC50 (nM), cAMP inhibition” value was determined as 56.7 nM and the “Efficacy(%), cAMP inhibition” value was determined as 77%.

Values taken from patent US20110257105A1 (CARA THERAPEUTICS, published 2011).
